From publication doi:10.1101/305292 come the findings set out here.

The target of this assay is GFP-tagged epidermal growth factor receptor (EGFR-GFP) (human) (UniProt P00533). The assay is described as follows: dual-colour single-molecule TIRF colocalisation with step-wise photobleaching.

“tetramethylrhodamine-labelled epidermal growth factor (EGF-TMR) (ligand)” gave a percent of EGFR foci colocalised with EGF, across 60 min of 40% and a percent of all EGFR molecules in foci colocalised with EGF of 64%.
